Results as given in US20190177391A1, “ANGIOPOIETIN-LIKE PROTEIN 8 (ANGPTL8)” (BAYLOR RESEARCH INSTITUTE, priority 2016, published 2019).

Key:
Notch1 = Notch1 expression in HL-1 atria muscle cells treated with ADM; type: cell-based, mouse; settings: HL-1 cells; ADM 0.25, 0.5, 1.0 μM, 48 hrs
[1] = system: rat hearts with established adriamycin cardiomyopathy; experiment: Echocardiography of heart structure and function in established adriamycin cardiomyopathy; type: in vivo; settings: protein therapy; 5, 20, 40 μg/kg/day intramuscular for 14 days; ADM cardiomyopathy rats
Procedure: The protocol was planned to test the hypothesis that delivery of ANGPTL8 by UTMD could reverse established adriamycin (ADM) cardiomyopathy defined as a fractional shortening <30% by echocardiography after injection of ADM (Iliskovic, et al., 1997) at total dose of 15 mg/kg/ip, 2.5 mg/kg/ip 6 times over 2 weeks.
(§1) There were 120 rats divided into three control groups of 30 rats each and a treatment group of 30 rats: (1) normal control rats; (2) ADM injection only; (3) ADM plus UTMD with a DsRed reporter gene (pXL-BASII-CI-DsRed/pCI-hyPB); (4) ADM plus UTMD with ANGPTL8 (pXL-BASII-CI-ANGPTL8/pCI-hyPB). All rats were euthanized at 3 days, 7 days, 14 days, 21 days and 28 days after UTMD. The thymidine analog, 5-bromo-2-deoxyuridine (BrdU) (100 mg/kg) was injected intraperitoneally 6 hours prior to euthanizing.
(§2) 15 rats divided into (1) normal control rats; (2) ADM plus Saline inject rats; (3) ADM plus ANGPTL8 protein at dose of 5 μg/kg/day intramuscular inject for 14 days; (4) ADM plus ANGPTL8 protein at dose of 20 μg/kg/day intramuscular inject for 14 days; (5) ADM plus ANGPTL8 protein at dose of 40 μg/kg/day intramuscular inject for 14 days; All rats were euthanized at 14 days after starting ANGTPL8 protein inject. The thymidine analog, 5-bromo-2-deoxyuridine (BrdU) (100 mg/kg) was injected intraperitoneally 6 hours prior to euthanasia. […]

ISL-1 = ISL-1 positive cardiac progenitor cells in epicardium and sub-epicardium (staining, qRT-PCR); type: in vivo, rat; settings: protein injection, dose dependent manner, after 14 days treatment
Procedure: as §1, §2
Total RNA was isolated from 100 mg of pancreas, liver and left quadratic skeletal muscle using the RNeasy mini kit (Qiagen). Real-time quantitative RT-PCR (qRT-PCR) analysis was performed on an ABI 7700 Sequence Detector (Applied Biosystems, Grand Island, N.Y., USA) using SYBR Green (RT2 SYBR Green qPCR Kit; Qiagen, Boston, Mass., USA). […]

[2] = ELISA for fasting plasma human ANGPTL8; type: in vivo, rat; settings: protein therapy; intramuscular daily for 14 days, 5, 20, 40 μg/kg/day; day 3, 7, 10 and 14
Procedure: as §1
15 rats divided into (1) normal control rats; (2) ADM plus Saline inject rats; (3) ADM plus ANGPTL8 protein at dose of 5 μg/kg/day intramuscular inject for 14 days; (4) ADM plus ANGPTL8 protein at dose of 20 μg/kg/day intramuscular inject for 14 days; (5) ADM plus ANGPTL8 protein at dose of 40 μg/kg/day intramuscular inject for 14 days; All rats were euthanized at 14 days after starting ANGTPL8 protein inject. The thymidine analog, 5-bromo-2-deoxyuridine (BrdU) (100 mg/kg) was injected intraperitoneally 6 hours prior to euthanasia. Human recombinant protein ANGTPL8 protein was purchased from Phoenix Pharmaceuticals (Cat #056-61, Burlingame, Calif., USA).
Fasting venous blood was collected in EDTA tubes from the tail vein, and plasma lipids were measured using standard enzymatic assays. Human ANGTPL8 was measured using ELISA (Phoenix Pharmaceuticals).

Molecule | Notch1 expression (Notch1) | LV fractional shortening [1] | LV mass [1] | ISL-1 positive cells in epicardial layer (ISL-1) | human ANGPTL8 in fasting plasma [2]
COc1cccc2c1C(=O)c1c(O)c3c(c(O)c1C2=O)C[C@@](O)(C(=O)CO)C[C@@H]3O[C@H]1C[C@H](N)[C@H](O)[C@H](C)O1 [ADM, adriamycin] | significantly inhibited | – | – | – | –
ANGPTL8 protein: Human recombinant ANGPTL8 protein purchased from Phoenix Pharmaceuticals (Cat #056-61), injected intramuscularly (protein, UniProt Q6UXH0 22-198, looked up) Angiopoietin-like protein 8: APMGGPELAQHEELTLLFHGTLQLGQALNGVYRTTEGRLTKARNSLGLYGRTIELLGQEVSRGRDAAQELRASLLETQMEEDILQLQAEATAEVLGEVAQAQKVLRDSVQRLEVQLRSAWLGPAYREFEVLKAHADKQSHILWALTGHVQRQRREMVAQQHRLRQIQERLHTAALPA | – | some degree of restoration | some degree of restoration | activated | detected
